Experiments:
purified protein [1] = substrate: C=C(O[C@H]1C=CC=C(C(=O)O)[C@@H]1O)C(=O)O; assay: purified protein; settings: with glutamate and ATP; isochorismate made from chorismate by ICS1
purified protein [2] = substrate: O=C(O)c1ccc(O)cc1; assay: purified protein; settings: with glutamate and ATP

B1: PBS3 (AvrPphB SUSCEPTIBLE3) (Arabidopsis thaliana) (protein)
chain: MKPIFDINETFEKQLKDLTSNVKSIQDNLLEEIITPNTKTEYLQRFLIDRFDKELFKKNVPIVSYEDIKPYLDRVVNGESSDVISARTITGFLLSSGTSGGAQKMMPWNNKYLDNLTFIYDLRMQVITKHVKGVEEGKGMMFLFTKQESMTPSGLPARVATSSYFKSDYFKNRPSNWYYSYTSPDEVILCPNNTESLYCHLLCGLVQRDEVVRTGSIFASVMVRAIEVLKNSWEELCSNIRSGHLSNWVTDLGCQNSVSLVLGGPRPELADTIEEICNQNSWKGIVKRLWPNTKYIETVVTGSMGQYVPMLNYYCNDLPLVSTTYGSSETTFGINLDPLCKPEDVSYTFMPNMSYFEFIPMDGGDKNDVVDLEDVKLGCTYEPVVTNFAGLYRMRVGDIVLVTGFYNNAPQFKFVRRENVVLSIDSDKTNEEDLFKAVSQAKLVLESSGLDLKDFTSYADTSTFPGHYVVYLEVDTKEGEEKETAQFELDEEALSTCCLVMEESLDNVYKRCRFKDGSIGPLEIRVVRQGTFDSLMDFFISQGASTGQYKTPRCIKSGKALQVLETCVVAKFFSI
Km (purified protein [1]): 14.90 µM
kcat (purified protein [1]): 472.29 min^-1 (printed as V/Et)
Km (purified protein [2]): 311.54 µM
kcat (purified protein [2]): 13.46 min^-1 (printed as V/Et)

Source: doi:10.1101/600692v2
